From US20150259430A1 (MAB DISCOVERY, published 2015)
Numbering of substitutions follows the chain as printed.

B1: Antibody 47 (antibody, V domains shown)
VH: QSVEESGGRLVTPGTPLTLTCTVSGFSLSSYAMNWVRQAPGKGLEWIGIIDSSGITYYATWAKGRFTISKTSTTVDLKMTSLTTEDTATYFCARGVTLWGQGTLVTVSS
VL: AQVLTQTASPVSAAVGSTVTINCQASQSVYNNNRLSWFQQKPGQPPKLLISGASTLASGVSSRFSGSGSGTQFTLTISDVQCDDAATYYCLGSYDCSSADCGAFGGGTEVVVK
notes: rabbit IgG in B-cell supernatant
B2: Antibody 24 (antibody, V domains shown)
VH: QSVEESGGRLVTPGTPLTLTCTVSGFSLSSNAISWVRQAPGKGLEWIGFINIYGSTYYASWAKGRFTISRTSTTVDLKMTSLTTEDTATYFCARDRTGDSPTRLDLWGQGTLVTVSS
VL: DVVMTQTPASVEAAVGGTVTIKCQASQSISSYLSWYQQKPGQPPKLLIYDASTLASGVPSRFKGSGSGTQFTLTISDLECADAATYYCQCTYGYGASSAYGNAFGGGTEMVVK
notes: as for B1
B3: Antibody 32 (antibody, V domains shown)
VH: QSVEESGGRLVTPGTPLTLTCTVSGFSLSSYDMSWVRQAPGKGLEWIGFIDGDSNTYDATWAKGRFTISKTSTTVDLKITSPTTEDTATYFCTRGFNLWGQGTLVTVSS
VL: DVVMTQTPASVSEPVGGTVTIKCQASQSISSYLAWYQQKPGQPPKLLIYKASTLASGVSSRFKGSGSGTEFTLTISDLECADAATYYCQCSAGGRSGIGGFGGGTEVVVK
notes: as for B1
B4: Antibody 62 (antibody, V domains shown)
VH: QSVEESGGRLVTPGTPLTLTCTVSGFSLSTNDIGWVRQAPGKGLEWIGYIWSGVKTYYVGWAKGRFTISKTSSTTVDLKMTSLTTEDTATYFCARVNSFSYVYSLWGPGTLVTVSS
VL: AYDMTQTPGSVEVAVGGTVTIKCQASEDIHSSLAWYQQKPGQPPKLLIYLASTLESGVPSRFKGSGSGTEYTLTISGVECADAATYYCQQHHSTSGVDNAFGGGTEVVVK
notes: as for B1
B5: Antibody 28 (antibody, V domains shown)
VH: QEQLEESGGDLVKPGASLTLTCKVSGFSLTSGYYMCWVRQAPGKGLEWLACIYTGSSGRTYYASWAKGRFTISKTSSTTVTLQMTSLTAADTATFFCARELYLSSVLWGPGTLVTVSS
VL: DVVMTQTPASVSEPVGGTVTIKCQASQSISSSYLSWYQQKPGQPPKLLIYRASTLESGVPSRFKGSGSGTEFTLTISDLECADAATYYCQCTDYAGSYVGGAFGGGTEVVVK
notes: as for B1
B6: Antibody 11 (antibody, V domains shown)
VH: QSVEESGGRLVTPGTPLTLTCTVSGFSLRSYAMSWVRQAPGKGLEWVGIISTSGDTYYASWAKGRFTISKTSTTVDLKITSPTTEDTATYFCARYSYDDYGDYVRVGMDLWGPGTLVTVSS
VL: AAVLTQTPSPVSAAVGGTVSISCQSSKSVYYNNWLSWFQQKPGQRPKLLIYGASTLASGVPSRFKGSGSETQFTLTISDVQCDDAATYYCAGGYTSSSDTVSFGGGTEVVVK
notes: as for B1
B7: Antibody 22 (antibody, V domains shown)
VH: QSVEESGGRLVTPGTPLTLTCTVSGFSLSNYGMSWVRQAPGKGLEWIGIITSRSTYYASWAKGRFTISKTSSTTVDLKMTSLTTEDTATYFCGVNNLWGQGTLVTVSS
VL: DPVLTQTPSSVSAAVGGTVTISCQSSQTINNNDLSWFQQKPGQPPKRLIYEASTLTSGVPSRFKGSGSGTQFTLTISDVQCDDAATYYCLGGYYSYGWYFGFGGGTEVVVK
notes: as for B1
B8: Antibody 23 (antibody, V domains shown)
VH: QSLEESGGRLVKPGTPLTLTCTASGFSLSSYYMIWVRQAPGKGLEYIGIISSSGSTYYASWAKGRFTISKTSSTTVDLKMTSLTTEDTATYFCGVNNLWGQGTLVTVSS
VL: B7 VL with T28S, Q39K
notes: as for B1
B9: Antibody 75 (antibody, V domains shown)
VH: QSVEESGGRLVTPGTPLTLTCTVSGFSLSRNAMSWVRQAPGKGLEWIGIINIYGTTWYASWAKGRFTISKTSSTTVTLKITSPTTEDTATYFCARDYGGDSATRLNLWGQGTLVTVSS
VL: DVVMTQTPASVEAAVGGTVTIKCQASQSIGGYLSWYQQKPGQPPKLLIYDASNLEIGVPSRFKGSGSGTEYTLTISDLECADAVTYYCQCTYGYGISSSYGNAFGGGTEVVVK
notes: as for B1
B10: Antibody 71 (antibody, V domains shown)
VH: B9 VH with Y58H, S60G
VL: B9 VL
notes: as for B1
B11: Antibody 69 (antibody, V domains shown)
VH: QSVEESGGRLVTPGTLLTLTCTVSGFSLTTYAVSWVRQAPGKGLEYMGYISATGSTYYASWAKGRFTISRTSTTVDLKITSPTIEDTATYFCARIDAATSYSAFDPWGPGTLVTVSS
VL: AQVLTQTPSSVSAAVGGTVTINCQSSESVYKNNYLAWYQQKPGQPPRLLIYLASTLASGVPSRFSGSGSGTQFTLTISGVQCDDAATYYCEATYVGVDWYWAFGGGTEVVVK
notes: as for B1
B12: Antibody 64 (antibody, V domains shown)
VH: QEQLKESGGGLVTPGTPLTLTCTASGFTISSYDMGWVRQAPGKGLEWIGYIWSGGSTYYANWAKGRFTISKTSTTVDLKMTSLTTEDTATYFCARVEFYSYVYVLWGPGTLVTVSS
VL: AFELTQTPSSVEAAVGGTVTIKCQASQSISGCLAWYQQKPGQPPKLLIYLASTLASGVSSRFRGSGSGTEYTLTISGVECDDAATYYCQQHYSSNNVDNAFGGGTEVVVK
notes: as for B1
B13: Antibody 52 (antibody, V domains shown)
VH: QSVEESGGRLVTPGTALTLTCTVSGFSLSSGDMSWVRQAPGKGLEWIGYIWSGVSTYYANWAKGRFTISKTSSTTVDLKMTSLTIEDTATYFCARVDFYSYVYSLWGPGTLVTVSS
VL: ALVMTQTPASVEAAVGGTVTIKCQASQSISSCLAWYQQKPGQPPKLLIYSASTLASGVPSRFKGSGSGTEYTLTISGVECADAATYYCQQHYTSNNIDNAFGGGTEVVVK
notes: as for B1
B14: Antibody 56 (antibody, V domains shown)
VH: QSLEESGGRLVTPGTPLTLTCTASGFSLSSYDLSWVRQAPGKGLEWIAYIWSGDKTYYANWAKGRFTISKTSSTTVDLKMTSLTTEDTATYFCATVNIYSYVYSLWGPGTLVTVSS
VL: B13 VL with L2Y, V3D, A13V, S31T, C32A, P40S, S50L, T93S, I97V
notes: as for B1
B15: Antibody 55 (antibody, V domains shown)
VH: QSLEESGGRLVTPGGSLTLTCTVSGSDISSYDMSWVRQAPGKGLEWIGYIWSGTTIYYASWPKGRFTISKTSSTTVDLKMTSLTTEDTATYFCAAINIYTYVYSLWGPGTLVTVSS
VL: B4 VL with G9A, V13A, D28S, H30Y, P40S, E55A, E70D, H92Y, T94G, G96N
notes: as for B1
B16: Antibody 53 (antibody, V domains shown)
VH: B15 VH with S30T, M33A, T55K, I56T, P62A, A95T, I96V, I98T
VL: B13 VL with L2Y, V3D, A13V, C32S, P40S, S50L, S94A, N95L, I97V
notes: as for B1
B17: Antibody 68 (antibody, V domains shown)
VH: QSVEESGGRLVTPGTPLTLTCTVSGFSLSTYSMSWVRQAPGKGLEWIGTIAISGTTYYASWAKGRFTISKSSTTVDLKISSPTTEDTATYFCARYVSDLIGTNLWGPGTLVTVSS
VL: DVVMTQTPASVSEPVGGTVTIKCQASQSIGSNLAWHQQKPGQPPKLLIYAASNLASGVSSRFKGSRSGTEYTLTISAVQCDDAATYYCQYTYYGSSVVIGTFGGGTEVVVK
notes: as for B1
B18: Antibody A05 (antibody, V domains shown)
VH: QSLEESGGRLVTPGGSLTLTCTVSGIDLSSYAVAWVRQAPGKGLQYIGFFDKSGNVYYASWAKGRFTISRTSSTTVDLKMTSLTTEDTATYFCGRGSGGSDLWGQGTLVTVSS
VL: DVVMTQTPASVEAAVGGTVTIKCQASQSISGYLAWFQQKPGQPPKLLIYGASTLASGVPSRFKGSGSGTEFTLTISDLECADAATYYCQSYYTTSATSYGNAFGGGTEVVVK
notes: as for B1
B19: Antibody B02 (antibody, V domains shown)
VH: QSVEESGGRLVTPGTPLTLTCTVSGFSLSSYDMIWVRQAPGKGLEYIGIINTGGSAHYARWANGRFTISKTSTKVDLKITSPTIEDTATYFCARRDFGVSSKLWGQGTLVTVSS
VL: DIVMTQTPASVSAAVGGTVTINCQASEDIGNWLAWYQQKPGQRPKLLIYAASDLASGVPSRFKGSGSGTDFTLTISGLECADAATYYCQGGFFGSGFVYAFGGGTEVVVK
notes: as for B1
B20: Antibody G04 (antibody, V domains shown)
VH: QSLEESGGDLVKPGASLTLTCKASGFTISSSYYMCWVRQAPGKGLEWVACSYDGDGSTYYANWAKGRFTTSKTSSTTVTLQMTSLTAADTATYFCARGSYVSRSYYDKWDLWGQGTLVTVSS
VL: EVVMTQTPASVSEPVGGTVTIKCQASQYISSYLSWYQQKPGQPPKLLIYAASNLASGVPSRFKGSGSGTEFTLTISGVQCDDAATYYCQNNYYISGYGTAFGGGTEVVVK
notes: as for B1
B21: Antibody D02 (antibody, V domains shown)
VH: QSLEESGGRLVTPGTPLTLTCTASRFSLSSYGVNWVRQAPGKGLQWIGYSHTDGSAYYTNWAKGRFTISRTSTTVDLKITSPTTADTATYFCWRGGLWGQGTLVTVSS
VL: AQVLTQTPSSVSAAVGGTVTINCQASQSVYKNNYLSWYQQKPGQPPKRLIYTASTLASGVPSRFKGSGSGTEFTLTISDVQCDDAATYYCVGGYDCSSADCNAFGGGTEVVVK
notes: as for B1

Each binder was assayed against T1, recombinant Fc chimeric conjugate of human EGFR (human, UniProt P00533 25-645) (assay: ELISA, coated antigen).
T1 construct: extracellular domain; Coated on the ELISA plate; also called HER1; Her1
Protocol: (§1) Microtiter plates were coated with a) c-Met, IGF-1R, EGFR, HER2, and/or HER3 protein or b) EGFR, HER2, and/or HER3 (recombinant Fc chimeric conjugates of human c-Met, IGF-1R, EGFR, HER2, HER3 or IL12 Rβ1). After a blocking process, specific antibodies from B-cell supernatants bind to the targets and are then detected by a POD-labeled anti-rabbit IgG antibody. The IL12R binding was used as a counter-screen.
(§2) 12.5 μL 0.5 μg/mL protein in PBS was transferred to a microtiter plate incubated and washed 3× with Wash Buffer. 90 μL Block Buffer was added to each well, incubated and washed. 12.5 μL Standard Antibody (Anti-EGF-Receptor; HER2 Rabbit anti-Human Monoclonal (extracellular domain) (SP3) Antibody; HER3 (N-terminal) antibody; start concentration 2 μg/ml; IL-12Rbeta1 antibody start concentration 500 ng/ml) in 1:2 dilutions or sample diluted in ELISA buffer was added, incubated and washed. 12.5 μl 1:5000 POD-Antibody (Anti-rabbit IgG, peroxidase-linked species-specific Fab2 fragment (from donkey) (ECL); assay dilution: 1:5000) in Elisa Buffer was added, incubated and washed. 15 μl TMB was added and 15 μl HCl was added after sufficient development. Absorbance (Optical Density O.D.) was read at 450 nm/620 nm.

binding result	Binder
no binding (tested: OD 0.1 or lower)	B1

These binders were tested against T2, recombinant Fc chimeric conjugate of human HER2 (human, UniProt P04626 23-652) (assay: ELISA, coated antigen).
T2 construct: extracellular domain; Coated on the ELISA plate
Protocol: as §1, §2

binding result	Binder
no binding (tested: OD 0.1 or lower)	B2
no binding (tested: OD 0.1 or lower)	B3
no binding (tested: OD 0.1 or lower)	B4
no binding (tested: OD 0.1 or lower)	B5
no binding (tested: OD 0.1 or lower)	B6
no binding (tested: OD 0.1 or lower)	B7
no binding (tested: OD 0.1 or lower)	B8
no binding (tested: OD 0.1 or lower)	B9
no binding (tested: OD 0.1 or lower)	B10
no binding (tested: OD 0.1 or lower)	B11
no binding (tested: OD 0.1 or lower)	B12
no binding (tested: OD 0.1 or lower)	B13
no binding (tested: OD 0.1 or lower)	B14
no binding (tested: OD 0.1 or lower)	B15
no binding (tested: OD 0.1 or lower)	B16

What follows are binders tested against T3, recombinant Fc chimeric conjugate of human HER3 (human, UniProt P21860 20-643) (assay: ELISA, coated antigen).
T3 construct: extracellular domain; Coated on the ELISA plate
T3 sequence (P21860 20-643, change not shown): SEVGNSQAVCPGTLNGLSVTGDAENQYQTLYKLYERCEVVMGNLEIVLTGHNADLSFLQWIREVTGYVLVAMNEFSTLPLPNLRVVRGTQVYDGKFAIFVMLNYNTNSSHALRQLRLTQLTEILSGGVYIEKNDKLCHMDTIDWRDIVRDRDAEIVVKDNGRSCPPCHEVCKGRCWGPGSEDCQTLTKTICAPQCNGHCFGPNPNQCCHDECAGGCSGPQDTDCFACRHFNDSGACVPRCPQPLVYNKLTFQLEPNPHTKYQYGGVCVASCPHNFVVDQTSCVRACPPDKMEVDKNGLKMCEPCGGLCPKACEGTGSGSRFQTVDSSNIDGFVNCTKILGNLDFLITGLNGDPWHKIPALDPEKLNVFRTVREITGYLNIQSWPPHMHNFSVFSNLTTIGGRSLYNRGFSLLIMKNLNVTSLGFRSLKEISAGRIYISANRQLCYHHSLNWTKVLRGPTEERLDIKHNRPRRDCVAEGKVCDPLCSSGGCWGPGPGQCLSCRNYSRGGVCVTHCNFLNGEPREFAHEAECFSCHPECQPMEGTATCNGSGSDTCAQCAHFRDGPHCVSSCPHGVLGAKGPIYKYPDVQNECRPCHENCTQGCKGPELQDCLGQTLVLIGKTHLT
Protocol: as §1, §2

binding result	Binder
no binding (tested: OD 0.1 or lower)	B17

Biological target: T1, recombinant Fc chimeric conjugate of …
Test: ELISA, coated antigen
Remark: another data set of the same source
Protocol: as §1, §2

binding result	Binder
no binding (tested: OD 0.1 or lower)	B18
no binding (tested: OD 0.1 or lower)	B19
no binding (tested: OD 0.1 or lower)	B20

These binders were tested against T4, recombinant Fc chimeric conjugate of human IGF-1R (human, UniProt P08069 31-935) (assay: ELISA, coated antigen).
T4 construct: extracellular domain; Coated on the ELISA plate
T4 sequence (P08069 31-935, change not shown): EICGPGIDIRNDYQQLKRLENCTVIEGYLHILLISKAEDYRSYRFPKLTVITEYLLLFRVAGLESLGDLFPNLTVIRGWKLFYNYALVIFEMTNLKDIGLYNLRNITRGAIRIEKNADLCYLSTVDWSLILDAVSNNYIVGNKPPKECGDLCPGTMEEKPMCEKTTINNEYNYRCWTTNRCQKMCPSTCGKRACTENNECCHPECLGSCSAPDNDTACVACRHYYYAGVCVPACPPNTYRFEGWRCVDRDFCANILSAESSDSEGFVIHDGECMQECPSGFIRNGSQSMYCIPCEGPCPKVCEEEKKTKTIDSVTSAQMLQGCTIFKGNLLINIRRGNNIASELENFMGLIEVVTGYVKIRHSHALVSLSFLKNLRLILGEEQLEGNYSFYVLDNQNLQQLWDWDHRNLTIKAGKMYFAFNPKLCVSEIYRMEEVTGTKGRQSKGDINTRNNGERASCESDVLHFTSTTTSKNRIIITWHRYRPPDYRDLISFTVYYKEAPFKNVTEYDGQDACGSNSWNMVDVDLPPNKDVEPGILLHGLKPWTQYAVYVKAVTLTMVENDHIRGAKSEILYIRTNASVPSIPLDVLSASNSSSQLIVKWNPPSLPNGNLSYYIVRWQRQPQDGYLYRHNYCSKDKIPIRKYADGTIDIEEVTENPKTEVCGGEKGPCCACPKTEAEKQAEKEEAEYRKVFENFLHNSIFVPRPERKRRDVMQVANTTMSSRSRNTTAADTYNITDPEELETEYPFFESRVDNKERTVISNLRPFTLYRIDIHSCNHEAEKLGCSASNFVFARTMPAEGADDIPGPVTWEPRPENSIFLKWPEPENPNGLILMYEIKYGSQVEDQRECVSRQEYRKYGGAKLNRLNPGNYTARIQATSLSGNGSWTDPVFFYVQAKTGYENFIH
Protocol: as §1, §2

binding result	Binder
no binding (tested: OD 0.1 or lower)	B21

Each binder was assayed against T2, recombinant Fc chimeric conjugate of … (assay: ELISA, coated antigen; supernatant IgG 1500.0 ng/ml).
Protocol: as §1, §2

Optical density (OD)	Binder
2.7	B17
